Measurements taken from article PMC8232969 (Cell, 2021).

Target: SARS-CoV-2 Spike-2P (stabilized S ectodomain trimer) (SARS-CoV-2, UniProt P0DTC2)
Assay: cryo-EM structure

B1: DH1041 Fab (Fab, V domains shown)
VH: EVQLVESGGGLVQPGGSLRLSCAASGVTFSSYWMSWVRQAPGKGLEWVANIRQDGSEKYSVDSVKGRFTISRDNAKNSLYLQMNSLRAEDTAVYYCARARRADNSGYYGFHFDCWGQGTLVTVSS
VL: QSVLTQPPSVSGAPGQRVTISCTGSSSNIGAGYDVHWYQQLPGTAPKLLIYGNNNRPSGVPDRFSDSKSGTSASLAITRLQAEDEADYYCQSYDSSLSGWVFGGGTKLTVL
stoichiometry N: 3 Fabs per S-2P trimer

B2: DH1047 Fab (Fab, V domains shown)
VH: QVQLVQSGAEVKKPGASVQVSCQASANTFTNHYIHWVRQAPGQGLEWMGIIYPTGGNTIYAQGFQGRVTMTRDTSLNTIYLELSSLRSEDTAVYYCARDVRVDDSWSGYDLLSGGTYFDYWGQGTLVTVSS
VL: not shown
stoichiometry N: 3 Fabs per S-2P trimer
